What all share (experiment): cell-based or functional assay
The target of test [1] is T1, Flt3(D835Y)(h) (human, UniProt P36888 564-993, limits assumed).
T1 sequence (looked up): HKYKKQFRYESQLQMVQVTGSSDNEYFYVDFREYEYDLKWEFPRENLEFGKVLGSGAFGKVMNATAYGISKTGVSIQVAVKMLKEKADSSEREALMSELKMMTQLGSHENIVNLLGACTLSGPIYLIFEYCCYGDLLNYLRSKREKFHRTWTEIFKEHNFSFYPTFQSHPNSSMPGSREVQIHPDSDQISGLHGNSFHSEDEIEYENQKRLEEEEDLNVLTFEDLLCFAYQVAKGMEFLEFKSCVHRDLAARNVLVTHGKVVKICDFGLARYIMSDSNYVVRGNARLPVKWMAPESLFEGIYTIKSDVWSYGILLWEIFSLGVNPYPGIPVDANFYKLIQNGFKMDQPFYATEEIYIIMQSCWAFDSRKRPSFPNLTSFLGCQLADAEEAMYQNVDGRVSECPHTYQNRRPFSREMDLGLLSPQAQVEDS

The target in test [2] is LIMK1(h) (human, UniProt P53667 285-638, limits assumed).
In test [3] the target is T2, MST2(h) (human, UniProt Q13188 1-491).
T2 sequence (looked up): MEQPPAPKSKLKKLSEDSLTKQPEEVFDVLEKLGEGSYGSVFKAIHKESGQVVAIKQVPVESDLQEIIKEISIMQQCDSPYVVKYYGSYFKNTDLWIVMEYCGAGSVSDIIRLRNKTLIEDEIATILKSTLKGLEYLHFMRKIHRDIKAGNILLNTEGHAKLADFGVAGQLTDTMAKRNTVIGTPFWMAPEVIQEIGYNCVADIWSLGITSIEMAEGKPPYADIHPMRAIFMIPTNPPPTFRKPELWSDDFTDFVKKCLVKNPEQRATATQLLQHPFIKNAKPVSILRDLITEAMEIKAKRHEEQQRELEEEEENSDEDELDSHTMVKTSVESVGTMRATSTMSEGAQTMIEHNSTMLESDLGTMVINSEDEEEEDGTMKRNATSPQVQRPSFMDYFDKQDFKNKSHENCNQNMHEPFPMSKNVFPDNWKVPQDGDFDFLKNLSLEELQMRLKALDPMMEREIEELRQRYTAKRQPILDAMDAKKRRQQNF

Test [4] concerns the target T3, MuSK(h) (human, UniProt O15146 517-869, limits assumed).
T3 sequence (looked up): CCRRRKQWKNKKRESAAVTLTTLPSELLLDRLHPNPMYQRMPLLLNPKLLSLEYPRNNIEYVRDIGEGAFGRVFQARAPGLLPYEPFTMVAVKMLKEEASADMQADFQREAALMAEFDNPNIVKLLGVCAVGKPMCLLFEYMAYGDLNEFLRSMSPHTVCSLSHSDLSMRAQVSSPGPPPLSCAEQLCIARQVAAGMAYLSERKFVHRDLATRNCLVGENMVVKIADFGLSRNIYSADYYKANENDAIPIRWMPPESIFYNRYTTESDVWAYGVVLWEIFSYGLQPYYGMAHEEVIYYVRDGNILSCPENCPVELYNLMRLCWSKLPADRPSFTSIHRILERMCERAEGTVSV

Test [5] addresses ASK1(h) (human, UniProt Q99683 649-946, limits assumed).
Test [6] deals with Pim-1(h) (human, UniProt P11309 1-313).
Test [7] addresses PKCβII(h) (human, UniProt P05771-2 1-673).
In test [8] the target is STK33(h) (human, UniProt Q9BYT3 1-514, limits assumed).
The target in test [9] is T4, TAO3(h) (human, UniProt Q9H2K8 1-314, limits assumed).
T4 sequence (looked up): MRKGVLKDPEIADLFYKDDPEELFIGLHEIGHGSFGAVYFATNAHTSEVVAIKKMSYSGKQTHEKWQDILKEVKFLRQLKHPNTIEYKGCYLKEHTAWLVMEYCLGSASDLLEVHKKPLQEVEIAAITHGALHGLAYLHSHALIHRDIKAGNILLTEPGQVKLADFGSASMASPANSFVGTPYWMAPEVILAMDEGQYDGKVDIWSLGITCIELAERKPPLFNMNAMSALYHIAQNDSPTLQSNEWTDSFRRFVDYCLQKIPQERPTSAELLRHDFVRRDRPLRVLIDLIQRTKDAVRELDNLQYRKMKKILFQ

Test [10] concerns the target Tie2(h) (human, UniProt Q02763 771-1124, limits assumed).
For test [11], the target named is CHK2(h) (human, UniProt O96017 5-543, limits assumed).
The target in test [12] is T5, DYRK2(h) (human, UniProt Q92630 1-601, limits assumed).
T5 sequence (looked up): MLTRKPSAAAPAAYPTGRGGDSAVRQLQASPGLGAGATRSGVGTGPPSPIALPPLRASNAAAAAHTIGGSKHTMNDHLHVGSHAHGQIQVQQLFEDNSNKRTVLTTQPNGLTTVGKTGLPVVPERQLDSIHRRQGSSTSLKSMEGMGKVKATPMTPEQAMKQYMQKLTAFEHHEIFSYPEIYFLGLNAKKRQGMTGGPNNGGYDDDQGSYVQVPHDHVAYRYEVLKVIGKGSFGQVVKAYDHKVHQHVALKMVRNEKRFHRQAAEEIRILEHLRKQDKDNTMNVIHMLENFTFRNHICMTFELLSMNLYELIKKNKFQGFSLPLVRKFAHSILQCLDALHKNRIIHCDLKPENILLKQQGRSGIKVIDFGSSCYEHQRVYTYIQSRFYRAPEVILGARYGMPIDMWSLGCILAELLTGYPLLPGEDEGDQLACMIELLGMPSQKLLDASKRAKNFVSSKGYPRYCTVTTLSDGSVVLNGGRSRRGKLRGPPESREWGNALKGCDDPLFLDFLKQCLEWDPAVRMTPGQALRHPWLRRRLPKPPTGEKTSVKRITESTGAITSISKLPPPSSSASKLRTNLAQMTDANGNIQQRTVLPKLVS

The target in test [13] is ErbB4(h) (human, UniProt Q15303 706-991, limits assumed).
Chain of ErbB4(h) (Q15303 706-991 limits assumed): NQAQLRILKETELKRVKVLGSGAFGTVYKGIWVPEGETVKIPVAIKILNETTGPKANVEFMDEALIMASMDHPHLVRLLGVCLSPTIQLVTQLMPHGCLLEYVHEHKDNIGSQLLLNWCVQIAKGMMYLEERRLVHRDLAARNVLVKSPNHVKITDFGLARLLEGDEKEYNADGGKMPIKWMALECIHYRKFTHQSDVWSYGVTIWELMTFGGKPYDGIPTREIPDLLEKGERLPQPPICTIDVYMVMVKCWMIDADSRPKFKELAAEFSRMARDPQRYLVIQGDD

Chain of ASK1(h) (Q99683 649-946 limits assumed): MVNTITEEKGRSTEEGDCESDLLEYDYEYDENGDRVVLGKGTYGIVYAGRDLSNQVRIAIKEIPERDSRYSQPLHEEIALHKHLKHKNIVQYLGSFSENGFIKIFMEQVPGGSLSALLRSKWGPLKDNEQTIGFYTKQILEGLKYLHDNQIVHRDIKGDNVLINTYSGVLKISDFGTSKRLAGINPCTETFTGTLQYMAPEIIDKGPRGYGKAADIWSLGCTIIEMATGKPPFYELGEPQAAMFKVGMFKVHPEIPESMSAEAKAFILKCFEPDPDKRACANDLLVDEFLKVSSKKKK
Chain of Pim-1(h) (P11309 whole entry): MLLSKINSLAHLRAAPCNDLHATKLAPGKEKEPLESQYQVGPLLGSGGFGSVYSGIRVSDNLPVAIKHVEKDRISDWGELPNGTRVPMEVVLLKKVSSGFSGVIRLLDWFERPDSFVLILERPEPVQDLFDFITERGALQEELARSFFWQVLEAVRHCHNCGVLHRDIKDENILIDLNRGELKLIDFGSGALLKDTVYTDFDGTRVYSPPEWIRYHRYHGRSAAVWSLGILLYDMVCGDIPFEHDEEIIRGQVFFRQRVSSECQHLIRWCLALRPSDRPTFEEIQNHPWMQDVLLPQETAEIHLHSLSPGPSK
Chain of PKCβII(h) (P05771 other isoform, or with tags, fused parts or gaps): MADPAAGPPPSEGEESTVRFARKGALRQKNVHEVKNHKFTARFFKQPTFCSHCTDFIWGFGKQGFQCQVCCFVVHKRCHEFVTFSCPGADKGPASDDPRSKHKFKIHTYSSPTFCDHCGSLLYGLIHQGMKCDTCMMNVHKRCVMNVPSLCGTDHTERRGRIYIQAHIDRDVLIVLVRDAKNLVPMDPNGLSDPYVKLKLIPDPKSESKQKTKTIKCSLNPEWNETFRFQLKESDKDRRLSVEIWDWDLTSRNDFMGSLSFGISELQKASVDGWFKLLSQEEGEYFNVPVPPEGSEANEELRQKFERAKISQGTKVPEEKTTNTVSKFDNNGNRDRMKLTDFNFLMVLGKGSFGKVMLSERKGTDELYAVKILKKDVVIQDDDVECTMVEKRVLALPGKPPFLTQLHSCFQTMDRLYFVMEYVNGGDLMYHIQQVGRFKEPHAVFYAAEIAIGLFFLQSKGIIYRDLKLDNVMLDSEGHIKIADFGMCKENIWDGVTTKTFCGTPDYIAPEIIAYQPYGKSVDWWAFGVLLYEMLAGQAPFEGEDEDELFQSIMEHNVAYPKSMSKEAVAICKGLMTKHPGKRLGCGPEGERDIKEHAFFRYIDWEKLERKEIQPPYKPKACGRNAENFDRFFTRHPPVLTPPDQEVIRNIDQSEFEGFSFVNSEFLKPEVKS
Chain of STK33(h) (Q9BYT3 whole entry): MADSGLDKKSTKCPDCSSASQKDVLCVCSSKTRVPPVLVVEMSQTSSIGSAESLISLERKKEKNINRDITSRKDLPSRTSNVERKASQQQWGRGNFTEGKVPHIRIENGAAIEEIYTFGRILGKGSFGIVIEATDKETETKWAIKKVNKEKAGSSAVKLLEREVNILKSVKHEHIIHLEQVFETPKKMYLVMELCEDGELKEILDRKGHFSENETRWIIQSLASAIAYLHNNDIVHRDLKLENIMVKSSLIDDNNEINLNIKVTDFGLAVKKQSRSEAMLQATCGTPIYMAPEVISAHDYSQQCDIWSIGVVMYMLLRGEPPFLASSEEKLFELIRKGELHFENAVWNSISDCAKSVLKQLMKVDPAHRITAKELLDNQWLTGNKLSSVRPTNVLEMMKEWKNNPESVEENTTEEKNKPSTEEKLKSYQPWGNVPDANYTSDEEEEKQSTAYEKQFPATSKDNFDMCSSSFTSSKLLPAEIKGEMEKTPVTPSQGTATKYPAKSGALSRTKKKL
Chain of LIMK1(h) (P53667 285-638 limits assumed): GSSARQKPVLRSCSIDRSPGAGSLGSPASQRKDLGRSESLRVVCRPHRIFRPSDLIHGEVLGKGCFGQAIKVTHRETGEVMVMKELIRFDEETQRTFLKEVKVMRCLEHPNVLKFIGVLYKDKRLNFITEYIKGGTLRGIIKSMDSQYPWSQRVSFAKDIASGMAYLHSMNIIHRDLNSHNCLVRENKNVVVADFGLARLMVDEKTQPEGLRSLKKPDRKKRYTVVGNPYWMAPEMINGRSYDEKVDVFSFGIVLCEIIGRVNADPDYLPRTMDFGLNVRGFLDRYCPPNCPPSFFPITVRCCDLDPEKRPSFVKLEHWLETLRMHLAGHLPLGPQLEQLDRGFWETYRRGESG
Chain of CHK2(h) (O96017 5-543 limits assumed): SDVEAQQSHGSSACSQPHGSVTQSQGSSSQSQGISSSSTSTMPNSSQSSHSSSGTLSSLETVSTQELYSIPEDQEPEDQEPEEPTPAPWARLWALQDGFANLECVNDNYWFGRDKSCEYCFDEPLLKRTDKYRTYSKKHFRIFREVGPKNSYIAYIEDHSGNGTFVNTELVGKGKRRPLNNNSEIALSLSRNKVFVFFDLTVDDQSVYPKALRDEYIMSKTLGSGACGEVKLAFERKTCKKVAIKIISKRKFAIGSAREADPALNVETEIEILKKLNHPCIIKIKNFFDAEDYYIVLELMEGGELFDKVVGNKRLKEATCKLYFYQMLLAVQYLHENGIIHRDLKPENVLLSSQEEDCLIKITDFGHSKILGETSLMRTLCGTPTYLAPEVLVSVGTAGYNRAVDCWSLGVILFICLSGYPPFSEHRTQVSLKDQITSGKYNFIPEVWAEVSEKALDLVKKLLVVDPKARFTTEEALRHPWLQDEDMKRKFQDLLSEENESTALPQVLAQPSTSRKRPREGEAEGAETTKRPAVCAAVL
Chain of Tie2(h) (Q02763 771-1124 limits assumed): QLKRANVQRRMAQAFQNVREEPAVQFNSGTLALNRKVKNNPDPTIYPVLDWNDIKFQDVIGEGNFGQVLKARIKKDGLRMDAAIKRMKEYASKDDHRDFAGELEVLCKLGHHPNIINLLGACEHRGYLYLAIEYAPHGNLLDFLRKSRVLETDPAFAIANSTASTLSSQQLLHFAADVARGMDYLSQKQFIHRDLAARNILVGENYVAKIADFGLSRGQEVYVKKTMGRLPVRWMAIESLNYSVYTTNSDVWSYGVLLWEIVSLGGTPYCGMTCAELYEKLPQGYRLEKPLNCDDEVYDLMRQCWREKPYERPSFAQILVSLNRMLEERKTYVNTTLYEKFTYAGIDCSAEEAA

B1: MMI-0400 (peptide)
peptide: KAFAKLAARLYRKALARQLGVAA
Regarding B1, the “% activity, 100 µM” value came to 71% in [1]; 92% in test [2]; 11% in test [3]; 93% in test [4]; 69% in test [5]; 7% in [6]. Further, the “% activity, 100 µM” value in test [7] was 75%; in test [8], 52%; in [9], 67%; in test [10], 21%; in test [11], 54%; in test [12], 195%. In test [13], the “% activity, 100 µM” value turned out to be 0%.

B2: MMI-0300 (peptide)
peptide: FAKLAARLYRKALARQLGVAA
With B2, the “% activity, 100 µM” value in [1] is 80%; in test [2], 88%; in [3] it was 19%; in test [4], 93%; in [5], 80%; in [6] it was 8%. In addition, the “% activity, 100 µM” value turned out to be 82% in test [7]; 45% in [8]; 77% in [9]; 26% in [10]; 66% in test [11]; 155% in test [12]. Besides, in [13], the “% activity, 100 µM” value came to 40%.

The values above are taken from patent US20140072613A1 (published 2014).
